# Assay results published in the supplement of paper PMC9732359.
# ± gives the uncertainty stated by the source.
# Experiment: protein stability index of a GFP-peptide fusion (yeast GPS) (PSI 1-4); higher = more stable; sorted into four equal gates, so the index is relative within each strain
# Outline: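 Plasmids isolated from each sorting gate were PCR-amplified and Illumina-sequenced, and barcodes assigned the reads to strains. The gates, four of equal size, were set by GFP/Cherry fluorescence ratio on mid-log cultures in leucine-free medium. These cultures were yeast carrying a pooled library of tiled 17-residue yeast protein peptides fused downstream of GFP on a plasmid that also expresses Cherry. The protein stability index is the sum of every gate's read frequency times its gate number.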
Sequence,protein stability index (doa10∆),protein stability index (pdr5∆),protein stability index (san1∆),protein stability index (ubr1∆)
AAGIWTCSCCKKTVAGG [RPL43A],2.42 ± 0.13,3.17 ± 0.11,3.02 ± 0.097,2.99 ± 0.074
TVPNLPTTMVTNQKDTN [ISW2],1.29 ± 0.046,1.84 ± 0.053,1.51 ± 0.1,1.75 ± 0.051
GYLFKVSALDKCIKYSE [ECM29],3.08 ± 0.13,2.11 ± 0.09,1.95 ± 0.11,2 ± 0.074
QGIIYAKVNRPAKIVNF [RPN5],2.61 ± 0.13,2.72 ± 0.15,2.37 ± 0.12,2.4 ± 0.16
LGIALIALGEDIGKEMS [RPN1],3.01 ± 0.081,3.01 ± 0.091,2.9 ± 0.1,3.02 ± 0.06
ALTDFERFQVMVLRKQK [RPL14A],1.96 ± 0.11,1.97 ± 0.11,1.62 ± 0.12,2.16 ± 0.065
GQCRPISKTVRFNVVKV [RPS11A],3.31 ± 0.12,2.93 ± 0.22,2.76 ± 0.097,2.77 ± 0.1
LEALMDILLCYQKLFSQ [SRB8],2.98 ± 0.055,3.16 ± 0.052,3.18 ± 0.048,3.05 ± 0.081
SPMINSTSSGKVSYAVK [SNM1],2.6 ± 0.11,3.11 ± 0.065,2.32 ± 0.097,2.93 ± 0.056
DPVSGAILVPMTVNDQP [YJR042W/NUP85],1.95 ± 0.18,2.03 ± 0.16,2.28 ± 0.087,2.4 ± 0.085
ETQLKVVTRSKEAFEEE [SMC1],–,3.25 ± 0.15,–,3.39 ± 0.085
LAAIVSTVIEEFTLFMD [YGL172W/NUP49],2.21 ± 0.052,2.56 ± 0.061,2.1 ± 0.074,2.42 ± 0.055
TDVLEISKQRTFAVILF [YMR129W/POM152],1.93 ± 0.056,2.52 ± 0.054,2.41 ± 0.058,2.21 ± 0.041
YAVAEQCPVKSAEDQLY [QCR2],3.22 ± 0.13,–,3.15 ± 0.14,3.34 ± 0.21
SLFQLSKLGKNLQTVHF [GRR1],2.2 ± 0.047,2.22 ± 0.051,1.96 ± 0.06,2.43 ± 0.038
AHRVRDLMDEELRKHAQ [SKI6],3.14 ± 0.14,3.39 ± 0.12,2.83 ± 0.12,3.29 ± 0.064
DRQCMIMDELLSSIAER [DIB1],2.7 ± 0.066,2.78 ± 0.053,2.88 ± 0.061,2.68 ± 0.052
LVSANNDNNSPHTPVTR [YLR018C/POM34],2.63 ± 0.12,2.85 ± 0.072,2.92 ± 0.08,2.95 ± 0.12
VWDKFAVNLLNCPHSDS [SSN2],–,2.81 ± 0.27,–,–
LDSQETPSTEESRAQNV [SWI3],2.41 ± 0.091,2.38 ± 0.12,3.16 ± 0.089,2.37 ± 0.051
LAPNMQLNGNETFSTSA [SNF2],3.15 ± 0.14,3.17 ± 0.11,3.29 ± 0.068,2.92 ± 0.096
DEVDAIGGRRFSEGTSA [RPT4],2.72 ± 0.086,2.67 ± 0.083,2.48 ± 0.1,2.35 ± 0.09
CKKKEMSQYQSTMKENK [YIL149C/MLP2],2.49 ± 0.088,2.76 ± 0.073,1.42 ± 0.23,2.55 ± 0.071
SFLMRQFTRFFLLVPSK [ECM29],2.03 ± 0.067,2.03 ± 0.057,1.75 ± 0.12,2.31 ± 0.05
DSSMTTVQENELLKSSL [AAR2],2.79 ± 0.12,3.32 ± 0.1,3.12 ± 0.095,2.94 ± 0.13
TDGDSILYYDVLFITPD [BRR2],2.47 ± 0.068,2.5 ± 0.064,2.54 ± 0.068,2.94 ± 0.051
YVGNKRLELAGQLISLL [RET1],2.84 ± 0.083,3.25 ± 0.092,2.7 ± 0.074,2.92 ± 0.079

Sequence,protein stability index (doa10∆),protein stability index (pdr5∆),protein stability index (san1∆),protein stability index (ubr1∆)
MQANTNALRRNLLKDEG [SSN3],2.94 ± 0.11,3.1 ± 0.25,2.98 ± 0.21,3.2 ± 0.27
DSTPEEVSCKLLETITY [YML103C/NUP188],2.47 ± 0.077,2.82 ± 0.086,2.47 ± 0.075,2.79 ± 0.092
NARKVVGASVVVVKNWG [RPS12],2.83 ± 0.15,2.69 ± 0.13,2.12 ± 0.24,2.67 ± 0.084
PGPYPNEQAARAANQGA [CYT1],2.35 ± 0.053,2.68 ± 0.045,2.33 ± 0.059,2.3 ± 0.05
LSFVDIVLSKAASALDE [SIR4],1.84 ± 0.11,2.8 ± 0.071,2.59 ± 0.14,2.21 ± 0.054
GYMQKPVYATIGVETGS [PRP28],1.47 ± 0.25,2.23 ± 0.21,1.68 ± 0.19,1.77 ± 0.19
LVQLEPHLFVNGDLTVS [SSN2],1.77 ± 0.1,1.9 ± 0.069,1.53 ± 0.16,1.5 ± 0.16
EIKKLLATNSLVEEFML [DIS3],2.32 ± 0.055,1.9 ± 0.052,2.54 ± 0.057,2.3 ± 0.048
LAKSGSTEETTANTGTI [TAF14],2.61 ± 0.08,2.27 ± 0.089,2.19 ± 0.14,2.39 ± 0.091
AAAAPAPVAAAAPAAAA [FAS2],–,1.62 ± 0.27,–,–
DLEKLLEMSTEDFVKLA [RPS15],3.11 ± 0.15,3.13 ± 0.12,3.44 ± 0.12,3.28 ± 0.08
INSAPDFTQEDELRKQE [ISW2],3.24 ± 0.084,3.52 ± 0.068,3.4 ± 0.062,3.46 ± 0.057
SNISDEKSRISERDSKD [YMR129W/POM152],3.06 ± 0.1,3.12 ± 0.076,2.87 ± 0.075,3.13 ± 0.063
KLSQMILDKIFYGVLDQ [RPN6],2.83 ± 0.13,2.99 ± 0.12,2.92 ± 0.062,2.86 ± 0.11
VNQTGSTKKDTVQLTFL [YCG1],3.05 ± 0.29,3 ± 0.16,–,2.9 ± 0.16
NLFPLKPKMLPIPSKPT [SRP68],2.38 ± 0.11,2.55 ± 0.093,2.43 ± 0.16,2.61 ± 0.081
NGTISKTGKKNKVAKKN [SRP14],3.51 ± 0.16,3.45 ± 0.19,3.09 ± 0.13,3.17 ± 0.076
KPSRTSRQVQKRPRSRT [RPS7A],3.08 ± 0.092,2.44 ± 0.085,2.68 ± 0.061,1.95 ± 0.14
MSVQDTKAVEFSMGHIR [MED4],3.24 ± 0.11,3.37 ± 0.093,3.22 ± 0.069,2.9 ± 0.088
TSKSFSKLLYDDVTCDK [SIN4],3.01 ± 0.077,2.9 ± 0.051,2.7 ± 0.054,3.16 ± 0.039
GSNGELFGGRHYLFNTF [SWP82],–,2.97 ± 0.29,–,–
KHLEDNTLLISGPFKVN [RPL6A],1.83 ± 0.085,2.01 ± 0.072,1.63 ± 0.13,2.14 ± 0.048
KHHQLFYMLNAGIRPKF [RPN1],2.23 ± 0.17,2.04 ± 0.085,1.7 ± 0.082,1.98 ± 0.1
ESLKNLNESRSQHKKIL [SMC3],2.78 ± 0.13,3.05 ± 0.098,2.85 ± 0.1,3.04 ± 0.096
GESTVESEKLVTPEDVM [RPC82],3.15 ± 0.09,3.25 ± 0.12,3.15 ± 0.11,–
FTNRSTMMANFEEWIKM [BRN1],2.12 ± 0.18,2.31 ± 0.19,2.32 ± 0.1,2.65 ± 0.054
IKNFKSLLLSSSFKEDC [SSN2],2.82 ± 0.11,2.98 ± 0.094,2.96 ± 0.086,3.11 ± 0.086
